Laboratory results: IntAct's records for PubMed 31515488

B1: Zinc finger protein 165 (Homo sapiens), P49910 (parent)
chain: MATEPKKAAAQNSPEDEGLLIVKIEEEEFIHGQDTCLQRSELLKQELCRQLFRQFCYQDSPGPREALSRLRELCCQWLKPEIHTKEQILELLVLEQFLTILPGDLQAWVHEHYPESGEEAVTILEDLERGTDEAVLQVQAHEHGQEIFQKKVSPPGPALNVKLQPVETKAHFDSSEPQLLWDCDNESENSRSMPKLEIFEKIESQRIISGRISGYISEASGESQDICKSAGRVKRQWEKESGESQRLSSAQDEGFGKILTHKNTVRGEIISHDGCERRLNLNSNEFTHQKSCKHGTCDQSFKWNSDFINHQIIYAGEKNHQYGKSFKSPKLAKHAAVFSGDKTHQCNECGKAFRHSSKLARHQRIHTGERCYECNECGKSFAESSDLTRHRRIHTGERPFGCKECGRAFNLNSHLIRHQRIHTREKPYECSECGKTFRVSSHLIRHFRIHTGEKPYECSECGRAFSQSSNLSQHQRIHMRENLLM
B2: Protein SSX3 (Homo sapiens), Q99909 (parent)
chain: MNGDDTFARRPTVGAQIPEKIQKAFDDIAKYFSKEEWEKMKVSEKIVYVYMKRKYEAMTKLGFKAILPSFMRNKRVTDFQGNDFDNDPNRGNQVQRPQMTFGRLQGIFPKIMPKKPAEEGNVSKEVPEASGPQNDGKQLCPPGKPTTSEKINMISGPKRGEHAWTHRLRERKQLVIYEEISDPEEDDE
partner: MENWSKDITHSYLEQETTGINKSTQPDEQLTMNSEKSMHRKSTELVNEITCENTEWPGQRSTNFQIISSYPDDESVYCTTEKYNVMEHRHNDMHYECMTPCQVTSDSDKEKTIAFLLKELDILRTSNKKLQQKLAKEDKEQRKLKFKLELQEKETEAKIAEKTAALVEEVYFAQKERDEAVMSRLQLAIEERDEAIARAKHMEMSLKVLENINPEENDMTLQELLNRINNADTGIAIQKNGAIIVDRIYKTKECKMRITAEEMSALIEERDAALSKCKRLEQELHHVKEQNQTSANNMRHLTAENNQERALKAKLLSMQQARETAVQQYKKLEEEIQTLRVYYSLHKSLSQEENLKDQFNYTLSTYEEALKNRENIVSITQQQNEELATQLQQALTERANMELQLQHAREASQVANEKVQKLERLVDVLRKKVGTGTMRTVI
B3: Protein FAM168A (Homo sapiens), Q92567 (parent)
chain: MNPVYSPVQPGAPYGNPKNMAYTGYPTAYPAAAPAYNPSLYPTNSPSYAPEFQFLHSAYATLLMKQAWPQNSSSCGTEGTFHLPVDTGTENRTYQASSAAFRYTAGTPYKVPPTQSNTAPPPYSPSPNPYQTAMYPIRSAYPQQNLYAQGAYYTQPVYAAQPHVIHHTTVVQPNSIPSAIYPAPVAAPRTNGVAMGMVAGTTMAMSAGTLLTTPQHTAIGAHPVSMPTYRAQGTPAYSYVPPHW

Variants of: B1
Settings: with kat7_human KAT7, O95251
Chain of kat7_human KAT7, O95251 (O95251 whole entry): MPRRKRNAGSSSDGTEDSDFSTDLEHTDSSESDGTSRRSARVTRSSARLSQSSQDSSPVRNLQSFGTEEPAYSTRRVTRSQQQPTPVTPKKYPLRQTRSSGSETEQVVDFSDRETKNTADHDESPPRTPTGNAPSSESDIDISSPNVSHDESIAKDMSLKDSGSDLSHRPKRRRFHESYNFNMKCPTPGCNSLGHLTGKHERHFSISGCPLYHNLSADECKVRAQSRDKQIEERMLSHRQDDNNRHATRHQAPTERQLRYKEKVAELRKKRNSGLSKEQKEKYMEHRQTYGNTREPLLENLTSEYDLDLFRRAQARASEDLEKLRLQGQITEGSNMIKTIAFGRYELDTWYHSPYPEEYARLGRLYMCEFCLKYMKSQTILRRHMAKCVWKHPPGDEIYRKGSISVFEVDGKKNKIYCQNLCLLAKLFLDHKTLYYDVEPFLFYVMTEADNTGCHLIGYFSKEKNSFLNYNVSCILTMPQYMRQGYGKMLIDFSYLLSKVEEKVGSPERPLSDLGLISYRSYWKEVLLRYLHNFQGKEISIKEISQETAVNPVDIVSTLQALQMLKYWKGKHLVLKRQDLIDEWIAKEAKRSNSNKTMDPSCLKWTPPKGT

Row | Variant | effect of a mutation on the interaction
1 | R69C | with no effect
2 | N347Y | with no effect

Variants of: B1
Settings: with pdli7_human PDLIM7, Q9NR12
Chain of pdli7_human PDLIM7, Q9NR12 (Q9NR12 whole entry): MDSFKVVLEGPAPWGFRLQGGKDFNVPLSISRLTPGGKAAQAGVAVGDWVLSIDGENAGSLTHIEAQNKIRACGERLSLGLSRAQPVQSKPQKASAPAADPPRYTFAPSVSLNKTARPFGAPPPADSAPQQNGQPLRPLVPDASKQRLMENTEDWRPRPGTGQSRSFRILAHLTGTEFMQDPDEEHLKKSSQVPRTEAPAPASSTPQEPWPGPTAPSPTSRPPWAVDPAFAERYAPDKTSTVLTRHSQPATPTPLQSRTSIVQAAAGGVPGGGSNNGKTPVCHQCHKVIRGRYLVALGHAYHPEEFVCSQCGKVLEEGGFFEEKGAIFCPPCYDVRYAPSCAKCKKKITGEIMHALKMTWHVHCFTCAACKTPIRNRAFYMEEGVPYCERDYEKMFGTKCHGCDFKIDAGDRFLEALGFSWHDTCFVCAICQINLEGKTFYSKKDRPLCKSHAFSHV

Row | Variant | effect of a mutation on the interaction
3 | R69C | with no effect
4 | N347Y | with no effect

Variants of: B1
Settings: with trim1_human MID2, Q9UJV3
Chain of trim1_human MID2, Q9UJV3 (Q9UJV3 whole entry): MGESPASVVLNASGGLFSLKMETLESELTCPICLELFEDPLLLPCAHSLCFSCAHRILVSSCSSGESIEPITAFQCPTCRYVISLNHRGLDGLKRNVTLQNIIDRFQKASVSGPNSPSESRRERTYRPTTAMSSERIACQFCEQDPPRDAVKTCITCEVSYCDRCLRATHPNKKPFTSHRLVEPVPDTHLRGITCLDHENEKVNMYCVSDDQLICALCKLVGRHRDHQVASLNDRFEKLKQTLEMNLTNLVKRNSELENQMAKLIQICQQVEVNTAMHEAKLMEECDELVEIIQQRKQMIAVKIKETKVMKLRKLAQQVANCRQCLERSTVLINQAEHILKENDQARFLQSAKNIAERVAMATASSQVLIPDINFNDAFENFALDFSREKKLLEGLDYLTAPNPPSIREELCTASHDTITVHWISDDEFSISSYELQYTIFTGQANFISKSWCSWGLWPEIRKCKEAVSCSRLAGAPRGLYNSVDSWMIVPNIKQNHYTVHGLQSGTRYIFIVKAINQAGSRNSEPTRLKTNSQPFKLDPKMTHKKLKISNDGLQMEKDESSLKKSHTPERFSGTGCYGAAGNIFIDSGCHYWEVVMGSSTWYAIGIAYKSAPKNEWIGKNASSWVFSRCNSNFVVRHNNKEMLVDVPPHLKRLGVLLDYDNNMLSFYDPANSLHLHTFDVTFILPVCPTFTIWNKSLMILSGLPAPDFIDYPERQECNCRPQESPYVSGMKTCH

Row | Variant | effect of a mutation on the interaction
5 | R69C | with no effect
6 | N347Y | with no effect

Variants of: B1
Settings: with zn446_human ZNF446, Q9NWS9
Chain of zn446_human ZNF446, Q9NWS9 (Q9NWS9 whole entry): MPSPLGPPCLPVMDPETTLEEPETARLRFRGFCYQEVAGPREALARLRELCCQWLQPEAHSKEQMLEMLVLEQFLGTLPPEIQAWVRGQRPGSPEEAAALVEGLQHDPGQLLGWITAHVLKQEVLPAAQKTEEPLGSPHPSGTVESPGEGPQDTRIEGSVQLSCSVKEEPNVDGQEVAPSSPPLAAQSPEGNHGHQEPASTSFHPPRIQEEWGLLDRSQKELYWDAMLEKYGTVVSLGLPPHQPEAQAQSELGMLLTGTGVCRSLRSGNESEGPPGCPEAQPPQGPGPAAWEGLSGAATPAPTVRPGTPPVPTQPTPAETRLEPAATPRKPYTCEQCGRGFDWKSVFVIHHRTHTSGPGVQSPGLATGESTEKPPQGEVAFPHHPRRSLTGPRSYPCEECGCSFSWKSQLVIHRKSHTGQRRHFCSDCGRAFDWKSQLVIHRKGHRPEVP

Row | Variant | effect of a mutation on the interaction
7 | R69C | with no effect
8 | N347Y | with no effect

Variants of: B2
Settings: with mipo1_human MIPOL1, Q8TD10

Row | Variant | effect of a mutation on the interaction
9 | R159S | with no effect
10 | T77A | with no effect

Variants of: B3
Settings: with ru1c_human SNRPC

Row | Variant | effect of a mutation on the interaction
11 | P122R | with no effect

Variants of: B3
Settings: with ubs3b_human UBASH3B

Row | Variant | effect of a mutation on the interaction
12 | P122R | disrupting interaction strength

Variants of: B3
Settings: with ub2v1_human UBE2V1, Q13404
Chain of ub2v1_human UBE2V1, Q13404 (Q13404 whole entry): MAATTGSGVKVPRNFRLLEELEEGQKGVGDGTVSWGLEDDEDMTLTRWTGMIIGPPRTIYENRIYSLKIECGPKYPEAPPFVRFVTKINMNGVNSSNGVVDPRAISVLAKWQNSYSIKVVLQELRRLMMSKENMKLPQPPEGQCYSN

Row | Variant | effect of a mutation on the interaction
13 | P122R | disrupting interaction strength
